# Test results published in patent US20230357838.
# Where two headings read alike, the source gives them in different places.
# Experiments:
# [1] = test system: EcDa01 (Escherichia coli)
# [2] = test system: d22_PeDa01 (Pseudomonas entomophila)
# [3] = 5caC at all four C of the listed strand sites
# [4] = 5fC at all four C of the listed strand sites
sequence,measurement,setting,value
AAATTTAATTATAAAACGATCGACGACGAAATAATAAAAA (double strand) [40 bp 5caC oligo],activity (fraction deaminated),[1]; [3],0
same,activity (fraction deaminated),[2]; [3],0
AAATTTAATTATAAAACGATCGACGACGAAATAATAAAAA (double strand) [40 bp 5fC oligo],activity (fraction deaminated),[1]; [4],0.01
same,activity (fraction deaminated),[2]; [4],0
AAATTTAATTATAAAACGATCGACGACGAAATAATAAAAA (double strand) [40 bp control C oligo],activity (fraction deaminated),[1],0.6
same,activity (fraction deaminated),[2],0.14
